The text below walks through data of FireProtDB (doi:10.1006/jmbi.2001.4728).

For this data set the following is noted: Pseudomonas aeruginosa (strain ATCC 15692 / DSM 22644 / CIP 104116 / JCM 14847 / LMG 12228 / 1C / PRS 101 / PAO1); pH 7; 10 °C; Urea; Fluorescence; sodium phosphate 50 mM; reversible: yes; whole UniProt chain shown.

B1: Cytochrome c-551 wild type, P00099 (protein)
chain: MKPYALLSLLATGTLLAQGAWAEDPEVLFKNKGCVACHAIDTKMVGPAYKDVAAKFAGQAGAEAELAQRIKNGSQGVWGPIPMPPNAVSDDEAQTLAKWVLSQK
Consider B1, for which the denaturant m value was 1.1 kcal/mol/M, the “denaturant midpoint (higher = more stable)” value came to 6.4 M and the unfolding free energy stood at 7.1 kcal/mol.
